# Results as given in US20020137891A1, “Protein scaffold and its use to multimerise monomeric polypeptides” (priority 1999, published 2002).
# T1: pig heart mitochondrial malate dehydrogenase (mtMDH) (Sus scrofa, UniProt P00346)
# T1 construct: pig heart mitochondrial malate dehydrogenase (mtMDH; Boehringer-Mannheim); purchased Boehringer-Mannheim; host or cells: pig heart
# T1 sequence (P00346 25-338): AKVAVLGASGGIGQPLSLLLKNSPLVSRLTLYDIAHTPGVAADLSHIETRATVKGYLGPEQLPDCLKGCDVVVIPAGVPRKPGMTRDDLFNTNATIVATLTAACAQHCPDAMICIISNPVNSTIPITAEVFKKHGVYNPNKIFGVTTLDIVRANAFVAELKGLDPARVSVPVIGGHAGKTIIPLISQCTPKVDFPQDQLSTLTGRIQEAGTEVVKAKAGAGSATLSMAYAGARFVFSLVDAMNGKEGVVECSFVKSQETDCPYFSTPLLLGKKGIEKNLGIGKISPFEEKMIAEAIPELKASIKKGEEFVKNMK
# B1: GroEL(191-376): monomeric minichaperone, apical domain of GroEL residues 191 to 376, sht removed by thrombin cleavage (protein, UniProt P0A6F5 191-376, looked up, fragment)
# chain: EGMQFDRGYLSPYFINKPETGAVELESPFILLADKKISNIREMLPVLEAVAKAGKPLLIIAEDVEGEALATLVVNTMRGIVKVAAVKAPGFGDRRKAMLQDIATLTGGTVISEEIGMELEKATLEDLGQAKRVVINKDTTTIIDGVGEEAAIQGRVAQIRQQIEEATSDYDREKLQERVAKLAGGV
# modifications: apical domain
# notes: monomeric minichaperone, apical domain of GroEL residues 191 to 376, sht removed by thrombin cleavage
# What was measured:
# GroES = GroES (Escherichia coli, UniProt P0A6F9); settings: ELISA; proteins coated at 10 μg/mL, GroES at 10 μg/mL, 25° C.
# Description: GroES binding and competition assays by ELISA (enzyme-linked immunosorbant assay). Proteins were coated onto plastic microtitre plates (Maxisorb, Nunc) overnight at 4° C. at a concentration of 10 μg/mL in carbonate buffer (50 mM NaHCO3, pH 9.6). Plates were blocked for 1 hour at 25° C. with 2% Marvel in PBS (phosphate buffered saline: 25 mM NaH2PO4, 125 mM NaCl, pH 7.0). GroES, at 10 μg/mL in 100 μL of 10 mM Tris-HCl, 200 mM KCl, pH 7.4, were bound at 25° C. for 1 hour. Bound GroES were detected with rabbit anti-GroES antibodies (Sigma) followed by anti-rabbit immunoglobulins horseradish peroxidase conjugated antibodies (Sigma).
# [1] = target: T1, pig heart mitochondrial malate dehydrogenase (mtMDH); experiment: In vitro refolding and aggregation protection of heat- and dithiothreitol-denatured mtMDH; format: biochemical; settings: reactivation at 25° C., chaperone alone, FIG. 7b
# Description: In vitro refolding experiments. Refolding assays of pig heart mitochondrial malate dehydrogenase (mtMDH; Boehringer-Mannheim) and aggregation protection were carried out essentially as described (Peres Ben-Zvi, A. P., Chatellier, J., Fersht, A. R. & Goloubinoff, P. (1998) Proc. Natl. Acad. Sci. U.S.A. 95, 15275-15280). The concentrations of MC7 used were between 8-16 μM (reporter to protomer).
# bacteriophage λ (b2cI) = experiment: Growth (plaque formation) of bacteriophage λ at 30° C. in transformed wild-type and groEL mutant strains; format: cell-based, E. coli
# Description: Bacterial and bacteriophage strains. The E. coli strains used in this study were: C41(DE3), a mutant of BL21(DE3) capable of expressing toxic genes (Miroux, B. & Walker, J. E. (1996) J. Mol. Biol. 260, 289-298); SV2 (B178groEL44), SV3 (B178groEL59) and SV6 (B178groEL673): isogenic strains carrying temperature-sensitive alleles of groEL; SV1(=B178) (Georgopoulos, C., Hendrix, R. W., Casjens, S. R. & Kaiser, A. D. (1973) J. Mol. Biol. 76, 45-60), AI90 (ΔgroEL::kan^R) [pBAD-EL] (Ivic, A., Olden, D., Wallington, E. J. & Lund, P. A. (1997) Gene 194, 1-8), and TG1 (Gibson, T. J. (1984) Ph.D. thesis, University of Cambridge, U.K). Bacteriophage λb2cI (Zeilstra-Ryalls, J., Fayet, O., Baird, L. & Georgopoulos, C. (1993) J. Bacteriol. 175, 1134-1143) was used according to standard methods (Arber, W., Enquist, L., Hohn, B., Murray, N. E. & Murray, K. (1983) in Lambda II., ed. R. W. Hendrix, J. W. r., F. W. Stahl and R. A. Weisberg (Cold Spring Harbor Laboratory, Cold Spring Harbor, N.Y.), pp. 433-466); plaque formation was assayed at 30° C. T4D0, a derivative of bacteriophage T4 (Zeilstra-Ryalls, J., Fayet, O., Baird, L. & Georgopoulos, C. (1993) J. Bacteriol. 175, 1134-1143), was used according to standard methods (Karam, J. D. (1994) Molecular biology of bacteriophage T4. (American Society for Microbiology, Washington, D.C.)); plaque formation was assayed at 37° C.
# Bacteriophage λ requires the chaperonins GroES and GroEL for protein folding during morphogenesis; bacteriophage T4 requires GroEL and Gp31, the latter being encoded by the bacteriophage genome (Zeilstra-Ryalls, J., Fayet, O. & Georgopoulos, C. (1991) Annu. Rev. Microbiol. 45, 301-325). Nine groE alleles which fail to support λ growth have been sequenced (Zeilstra-Ryalls, J., Fayet, O., Baird, L. & Georgopoulos, C. (1993) J. Bacteriol. 175, 1134-1143). We examined the ability of MC7, over-expressed from the constitutive tet promoter on a high-copy number vector (see FIG. 2), to complement three mutant groEL alleles for plaque formation by λ (b2cI) at 30° C. (Table 3) and T4 at 37° C. (Table 4).
# GroES, sequence (P0A6F9 whole entry): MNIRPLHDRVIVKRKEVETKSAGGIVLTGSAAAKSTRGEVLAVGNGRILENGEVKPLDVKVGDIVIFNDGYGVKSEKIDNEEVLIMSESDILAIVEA
molecule,measurement,setting,value
B1,Binding to GroES,GroES,did not detectably bind
same,rate of refolding of denatured mtMDH,[1],ineffective in enhancing the refolding rate
same,Effect of over-expression on plaque formation by bacteriophage λ in SV1 (groE^+) (in words),bacteriophage λ (b2cI),had no effect on plaque counts
